T1: σ^66, recombinant purified, amine-coupled SPR ligand (Chlamydia trachomatis, UniProt P18333 1-571)
T1 construct: Sigma66 (RpoD) of Chlamydia trachomatis, cloned from serovar D/UW/CX genomic DNA; may be the same construct as m12 (GST-σ66); also called Sigma66; RpoD; source: PC2 E. coli, pGEX-derived vector, purified
T1 sequence (looked up): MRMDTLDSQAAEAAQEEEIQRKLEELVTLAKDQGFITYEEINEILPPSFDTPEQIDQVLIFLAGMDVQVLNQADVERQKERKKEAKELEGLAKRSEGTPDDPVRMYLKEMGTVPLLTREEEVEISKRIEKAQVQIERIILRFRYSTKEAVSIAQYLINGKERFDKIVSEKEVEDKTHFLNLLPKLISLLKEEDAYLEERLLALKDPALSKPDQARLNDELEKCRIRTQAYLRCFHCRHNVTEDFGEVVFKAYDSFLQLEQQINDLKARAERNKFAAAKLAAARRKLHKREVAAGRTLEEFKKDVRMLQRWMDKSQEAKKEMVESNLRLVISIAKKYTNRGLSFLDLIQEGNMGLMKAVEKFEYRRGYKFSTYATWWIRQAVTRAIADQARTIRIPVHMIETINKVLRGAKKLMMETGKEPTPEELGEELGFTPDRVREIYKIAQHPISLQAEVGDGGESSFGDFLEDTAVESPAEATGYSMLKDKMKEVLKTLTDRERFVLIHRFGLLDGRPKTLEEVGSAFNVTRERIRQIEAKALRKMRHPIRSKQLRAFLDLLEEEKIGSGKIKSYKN

B1: RsbV2 S55A (natural protein)
chain: MEWIAREYKNIFIVSLKGDMDAVTVPALEEFLTKSIAKGRVNVLLNMEKVFYMSAAGLRTLLSLAKLTQNHNGKLCICCLRDEVADIIRIAGLDKVITIRKAEQESFSDF
notes: RsbV2 of Chlamydia trachomatis (serovar D/UW/CX) with the phospho-accepting serine 55 changed to alanine; also called alanine derivative of RsbV2; source: PC2 E. coli, pGEX-derived vector (site directed mutagenesis), purified
B2: RsbWCt, recombinant purified (SPR analyte) (natural protein, Chlamydia trachomatis, UniProt O84553 1-146, looked up)
chain: MTFSEGEQVFPATLQDLYPMLDFVKRAGVHCNCTQKKLSKLELACEELLLNIITHAYKGLPSTGWIRILCTETPDALLVRITDHGPAFNPITASPDIMRLDLPIEQRRIGGLGIFLAKYSVDVFDYERVNDTNVVTLTLYTKPHNS
notes: RsbW of Chlamydia trachomatis, cloned from serovar D/UW/CX genomic DNA; also called CT549; source: PC2 E. coli, pGEX-derived vector, purified
B3: RsbV1 S56A (natural protein)
chain: MSNFQKEEQGQTGILHLQGKLDGVSSPAVQESISESLSNGMKNIILDCGDLDYISAAGIRVLLQSYHQVGKNAGKIALTSVSKTVEQTLYVTGFLSYFKVFDSVNEALQALAKENS
notes: RsbV1 of Chlamydia trachomatis (serovar D/UW/CX) with the phospho-accepting serine 56 changed to alanine; also called alanine derivative of RsbV1; source: PC2 E. coli, pGEX-derived vector (site directed mutagenesis), purified

What was measured:
[1] = biological target: B2; assay: SPR; RsbV1, RsbV2 or their S-to-A / S-to-D derivatives immobilized on CM5 chip, RsbWCt analyte (2500nM for the wild-type ligands) with ATP, first and repeated injections; empty reference flow cell; 10mM HEPES, 150mM NaCl, 1mM MgCl2, 30°C; settings: both partners purified
[2] = biological target: T1, σ^66, recombinant purified, …; assay: SPR; Biacore 3000, CM5 chip; σ66, σ28 and σ54 amine-coupled to consecutive flow cells, RsbWCt analyte at various concentrations; reference flow cell with immobilized GST; Req as percent of theoretical Rmax; 10mM HEPES, 150mM NaCl, 1mM MgCl2, 30°C; settings: both partners purified

## B1
[1]
  binding result: binds

## B2
[2]
  binding result: binds

## B3
[1]
  binding result: binds

— paper PMC4552016, “The Rsb Phosphoregulatory Network Controls Availability of the Primary Sigma Factor in Chlamydia trachomatis and Influences the Kinetics of Growth and Development” (PLoS Pathogens, 2015)
